Consider two molecules from US10610603B2, “Thymidine kinase gene” (GenVivo, Inc., priority 2013, dated 2020).

Assay type in all cases: cell-based
The test system of one data set is cancer cells. Put plainly: GCV mediated cancer kill following retroviral transduction delivery. The text has this:
To our knowledge, this is the most GCV selective HSV-TK synthetic gene product for GCV activation which has no Thymidine activity (HAT assay) ever evaluated biologically.

Another data set concerns A375 human melanoma. Put plainly: In vitro bystander assay. The conditions noted are these: 0-100% HSV-TK-m2 cells, 5-20 μM GCV. As to the method: (§1) Cells are seeded at 1-4×10^4 cells/well in a 96 well plate, in triplicate, with mixtures of TK cells ranging from 0-100%. The next day GCV is added at doses ranging from 10 μm to 1 mM. Cells plates at confluency are split 1:30 into 3 plates, 20-24 hours after GCV addition. 5 days later, cells are analyzed by Presto Blue for live cell metabolism and read on a microplate reader. Cell plates at sub-confluency are analyzed 3 days after GCV treatment by Presto Blue.
(§2) A375 human melanoma and C6 rat glioma stable pure population cell lines were established containing the A168H mutated HSV-TK-m2 gene. The bystander assays were conducted by plating the cancer cells with mixtures of the parental non-HSV-TK-m2 cells with the corresponding HSV-TK-m2 cell line ranging from 0-100% HSV-TK-m2. The mixtures of cancer cells were subsequently exposed to 5-20 μM GCV and cell kill is plotted in the figures below.

The test system of the next data set is C6 rat glioma. Put plainly: In vitro bystander assay. The conditions noted are these: 0-100% HSV-TK-m2 cells, 5-20 μM GCV. As to the method:
as §1, §2

B1: A168H and mutated at amino acids 159-161 from LIF to IFL: mHSV-TK CO MB-IFL A168H(IFL . . . AHL) (nucleic acid)
chain: GTCAGCGGCCGCACCGGTACGCGTCCACCATGGCCAGCTACCCCGGCCACCAGCACGCCAGCGCCTTCGACCAGGCCGCCCGCAGCCGCGGCCACAGCAACGGCAGCACCGCACTGCGGCCACGGCGCCAGCAGGAGGCCACCGAGGTGCGCCCCGAGCAGAAGATGCCCACCCTGCTGCGCGTGTACATCGACGGACCACACGGCATGGGCAAGACCACCACCACCCAGCTGCTGGTGGCCCTGGGCAGCCGCGACGACATCGTGTACGTGCCCGAGCCCATGACCTACTGGCGCGTGCTGGGCGCCAGCGAGACCATCGCCAACATCTACACCACCCAGCACCGCCTGGACCAAGGCGAGATCAGCGCCGGCGACGCCGCCGTGGTGATGACCAGCGCCCAGATTACAATGGGCATGCCCTACGCCGTGACCGACGCCGTGCTGGCACCACACATCGGCGGCGAGGCCGGCAGCAGCCACGCACCACCACCAGCACTGACCATCTTCCTGGACCGGCACCCAATCGCACACCTGCTGTGCTACCCGGCAGCACGCTACCTGATGGGCTCCATGACACCACAAGCCGTGCTGGCCTTCGTGGCCCTGATCCCACCAACACTGCCCGGCACCAACATCGTGCTGGGCGCCCTGCCCGAGGACCGCCACATCGACCGCCTGGCCAAGCGCCAGCGCCCCGGCGAGCGCCTGGACCTGGCCATGCTGGCCGCCATCCGCCGCGTGTACGGCCTGCTGGCCAACACCGTGCGCTACCTGCAGTGCGGCGGCAGCTGGCGCGAGGACTGGGGCCAGCTGAGCGGCACCGCCGTGCCACCACAGGGCGCCGAGCCACAGAGCAACGCCGGACCACGACCACACATCGGCGACACCCTGTTCACCCTGTTCCGGGCACCAGAGCTGCTGGCACCAAACGGCGACCTGTACAACGTGTTCGCCTGGGCCCTGGACGTGCTGGCCAAGCGCCTGCGCTCCATGCACGTGTTCATCCTGGACTACGACCAGTCACCGGCCGGCTGCCGCGACGCCCTGCTGCAGCTGACCAGCGGCATGGTGCAGACCCACGTGACAACACCCGGCAGCATCCCAACAATCTGCGACCTGGCCCGCACCTTCGCCCGCGAGATGGGCGAGGCCAACTAATAGGGATCCCTCGAGAAGCTTGTCA
For B1, in the data set on cancer cells, the “GCV mediated cancer kill activity” value is on record as “exhibited GCV mediated cancer cell kill activity”.

B2: SEQ ID NO: 18 (nucleic acid)
chain: GTCAGCGGCCGCACCGGTACGCGTCCACCATGGCCCTGCAGAAAAAGCTGGAAGAGCTGGAACTGGATGGCAGCTACCCCGGCCACCAGCACGCCAGCGCCTTCGACCAGGCCGCCCGCAGCCGCGGCCACAGCAACGGCAGCACCGCACTGCGGCCAGGATCTCAGCAGGAGGCCACCGAGGTGCGCCCCGAGCAGAAGATGCCCACCCTGCTGCGCGTGTACATCGACGGACCACACGGCATGGGCAAGACCACCACCACCCAGCTGCTGGTGGCCCTGGGCAGCCGCGACGACATCGTGTACGTGCCCGAGCCCATGACCTACTGGCGCGTGCTGGGCGCCAGCGAGACCATCGCCAACATCTACACCACCCAGCACCGCCTGGACCAAGGCGAGATCAGCGCCGGCGACGCCGCCGTGGTGATGACCAGCGCCCAGATTACAATGGGCATGCCCTACGCCGTGACCGACGCCGTGCTGGCACCACACATCGGCGGCGAGGCCGGCAGCAGCCACGCACCACCACCAGCACTGACCCTGATCTTCGACCGGCACCCAATCGCACACCTGCTGTGCTACCCGGCAGCACGCTACCTGATGGGCTCCATGACACCACAAGCCGTGCTGGCCTTCGTGGCCCTGATCCCACCAACACTGCCCGGCACCAACATCGTGCTGGGCGCCCTGCCCGAGGACCGCCACATCGACCGCCTGGCCAAGCGCCAGCGCCCCGGCGAGCGCCTGGACCTGGCCATGCTGGCCGCCATCCGCCGCGTGTACGGCCTGCTGGCCAACACCGTGCGCTACCTGCAGTGCGGCGGCAGCTGGCGCGAGGACTGGGGCCAGCTGAGCGGCACCGCCGTGCCACCACAGGGCGCCGAGCCACAGAGCAACGCCGGACCACGACCACACATCGGCGACACCCTGTTCACCCTGTTCCGGGCACCAGAGCTGCTGGCACCAAACGGCGACCTGTACAACGTGTTCGCCTGGGCCCTGGACGTGCTGGCCAAGCGCCTGCGCTCCATGCACGTGTTCATCCTGGACTACGACCAGTCACCGGCCGGCTGCCGCGACGCCCTGCTGCAGCTGACCAGCGGCATGGTGCAGACCCACGTGACAACACCCGGCAGCATCCCAACAATCTGCGACCTGGCCCGCACCTTCGCCCGCGAGATGGGCGAGGCCAACTAATAGGGATCCCTCGAGAAGCTTGTCA
B2: in the data set on cancer cells, the “GCV mediated cancer kill activity” value was “exhibited pro-drug GCV enzyme activity and selectivity for their ability to kill cancer cells”. The “cell kill in mixed populations (bystander effect)” value in the data set on A375 human melanoma and with C6 rat glioma was “significant increases in the mixed populations over what would be considered theoretical” each time.
